Read-outs that look alike come from different tables or passages of the source.
Legend:
Dis3L2 wild type [1] = biological target: T1, Dis3L2 wild type (mouse, UniProt Q8CI75 1-870); experiment: filter binding
T1 sequence: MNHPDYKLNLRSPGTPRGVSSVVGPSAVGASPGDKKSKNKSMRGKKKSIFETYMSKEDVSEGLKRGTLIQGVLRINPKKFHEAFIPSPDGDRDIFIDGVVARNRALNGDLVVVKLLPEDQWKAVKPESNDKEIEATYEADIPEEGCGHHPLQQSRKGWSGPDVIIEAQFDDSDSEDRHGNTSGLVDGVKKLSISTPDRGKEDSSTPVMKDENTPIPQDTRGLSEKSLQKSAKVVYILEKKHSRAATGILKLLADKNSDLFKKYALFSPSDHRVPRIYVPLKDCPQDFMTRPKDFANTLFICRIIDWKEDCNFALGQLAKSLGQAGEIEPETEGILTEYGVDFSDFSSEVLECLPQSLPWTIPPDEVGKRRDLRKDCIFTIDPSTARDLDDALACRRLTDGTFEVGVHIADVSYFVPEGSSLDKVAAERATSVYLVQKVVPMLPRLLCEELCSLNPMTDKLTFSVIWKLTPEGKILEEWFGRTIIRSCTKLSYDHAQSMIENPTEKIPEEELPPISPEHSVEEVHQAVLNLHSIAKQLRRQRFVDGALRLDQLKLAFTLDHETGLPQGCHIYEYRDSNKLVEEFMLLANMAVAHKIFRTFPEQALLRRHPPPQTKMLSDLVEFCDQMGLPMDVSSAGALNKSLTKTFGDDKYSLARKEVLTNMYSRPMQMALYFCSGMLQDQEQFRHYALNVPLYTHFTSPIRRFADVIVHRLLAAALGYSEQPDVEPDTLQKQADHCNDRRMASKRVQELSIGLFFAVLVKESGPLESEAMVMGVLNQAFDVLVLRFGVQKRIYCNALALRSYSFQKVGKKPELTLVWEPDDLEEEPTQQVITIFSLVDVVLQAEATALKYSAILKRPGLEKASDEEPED

Dis3L2 wild type [2] = biological target: T1, Dis3L2 wild type; experiment: filter binding; remark: listed apart in the source
Dis3L2 wild type [3] = biological target: T1, Dis3L2 wild type; experiment: filter binding; remark: listed apart in the source
Dis3L2 wild type [4] = biological target: T1, Dis3L2 wild type; experiment: filter binding; remark: listed apart in the source
[5] = biological target: T2, Dis3L2 truncated D389N (crystal construct) (mouse, UniProt Q8CI75 37-857, D389N;del148-169;del194-221); experiment: X-ray crystallography
T2 sequence: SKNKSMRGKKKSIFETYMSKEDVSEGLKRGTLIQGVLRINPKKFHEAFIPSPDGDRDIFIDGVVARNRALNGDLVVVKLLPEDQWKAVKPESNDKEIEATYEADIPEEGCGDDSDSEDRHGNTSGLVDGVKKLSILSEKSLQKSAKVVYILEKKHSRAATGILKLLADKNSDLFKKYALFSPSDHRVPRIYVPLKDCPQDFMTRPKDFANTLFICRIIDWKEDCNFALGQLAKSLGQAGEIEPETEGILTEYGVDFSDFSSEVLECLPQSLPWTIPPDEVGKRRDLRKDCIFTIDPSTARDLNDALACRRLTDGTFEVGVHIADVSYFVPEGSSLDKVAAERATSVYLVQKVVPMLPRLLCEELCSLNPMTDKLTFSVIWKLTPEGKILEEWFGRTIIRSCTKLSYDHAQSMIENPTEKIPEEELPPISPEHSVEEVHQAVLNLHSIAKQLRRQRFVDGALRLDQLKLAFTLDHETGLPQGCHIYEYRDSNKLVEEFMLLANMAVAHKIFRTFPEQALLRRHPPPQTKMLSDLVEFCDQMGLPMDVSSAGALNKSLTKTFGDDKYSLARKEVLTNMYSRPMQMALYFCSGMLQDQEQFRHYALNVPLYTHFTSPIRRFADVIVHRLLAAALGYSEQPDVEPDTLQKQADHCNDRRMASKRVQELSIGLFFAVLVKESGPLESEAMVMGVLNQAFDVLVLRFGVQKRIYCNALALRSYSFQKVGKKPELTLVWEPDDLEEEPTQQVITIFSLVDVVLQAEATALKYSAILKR

UUUUUUUUUUUUUUU (ssDNA, 2'-deoxyuridine at all positions) [deoxyU15]
binding result (Dis3L2 wild type [1]): binds

UUUUUUUUUUUUUUU (ssRNA) [U15]
binding result (Dis3L2 wild type [2]): binds

B1: pre-let-7 (pre-let7a1) (structured_RNA)
RNA: UGAGGUAGUAGGUUGUAUAGUUUUAGGGUCACACCCACCACUGGGAGAUAACUAUACAAUCUACUGUCUUUC
binding signal (Dis3L2 wild type [3]): 10 fold weaker than pre-let-7-U15

CCCCCCCCCCCCCCC (ssRNA) [C15]
binding signal (Dis3L2 wild type [4]): > 200 fold weaker than U15

AAAAAAAAAAAAAAA (ssRNA) [A15]
binding signal (Dis3L2 wild type [4]): > 200 fold weaker than U15

UUUUUUUUUUUUU (ssRNA) [U13]
binding result [5]: binds
